Experimental findings from ChEMBL document CHEMBL2073921, “The human T-type amino acid transporter-1: characterization, gene organization, and chromosomal location” (Genomics, 2002) are described below.

Holding throughout (details): Xenopus laevis; Oocyte
Substrate in data set [1]: N[C@@H](Cc1ccccc1)C(=O)O
Description: (§1) TP_TRANSPORTER: uptake in Xenopus laevis oocytes
Substrate in data set [2]: N[C@@H](Cc1c[nH]c2ccccc12)C(=O)O
Description: as §1
Substrate in data set [3]: N[C@@H](Cc1ccc(O)cc1)C(=O)O
Description: as §1
Substrate in data set [4]: N[C@H](Cc1ccccc1)C(=O)O
Description: as §1
Substrate in data set [5]: N[C@@H](Cc1ccc(O)c(O)c1)C(=O)O
Description: as §1

B1: SLC16A10 protein (Homo sapiens), Q05BR4 (protein)
chain: MVLSQEEPDSARGTSEAQPLGPAPTGAAPPPGPGPSDSPEAAVEKVEVELAGPATAEPHEPPEPPEGGWGWLVMLAAMWCNGSVFGIQNACGVLFVSMLETFGSKDDDKMVFKTAWVGSLSMGMIFFCCPIVSVFTDLFGCRKTAVVGAAVGFVGLMSSSFVSSIEPLYLTYGIIFACGCSFAYQPSLVILGHYFKKRLGLVNGIVTAGSSVFTILLPLLLRVLIDSVGLFYTLRVLCIFMFVLFLAGFTYRPLATSTKDKESGGSGSSLFSRKKFSPPKKNFQFCHLQGDSLCSVGSWNTTCTFWILCALCSLGEYAPSLIMNITI
In general, Km refers to the substrate concentration at which the rate is half of its maximum. Take B1: the Michaelis-Menten constant (Km) in data set [1] stood at 740 µM; in data set [2] it was 452 µM; in data set [3] it was 636 µM; in data set [4], 2300 µM; in data set [5] it was 1210 µM.
